We go through 167 variants from the RNAGym collection of RNA variant scans (doi:10.1073/pnas.2313332121).

First the molecules themselves.
B1: TPR t1 (parent)
chain: GACCAAUCUGCCCUCAGAGCUCGAGAACAUCUUCGGAUGCAGAGGAGGCAGGCUUCGGUGGCGCGAUAGCGCCAACGUCCUCAACCUCCAAUGCAUCCCACCACAUGAUGAUGCCUGAAGAGCCUUGGUUUUUUG

Variants of B1 are the subject of the series. Briefly: polymerase ribozyme fitness, log enrichment relative to wild type (log ratio); higher = more active; in vitro selection for triplet polymerase activity. In a few lines:
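Mutant libraries of both subunits of a heterodimeric triplet polymerase ribozyme were PCR-built, transcribed, and selected once in triplicate, with frozen incubation at −7 °C and capture of gel-excised extended constructs on streptavidin beads before RT-PCR. Illumina sequencing of input and output libraries was filtered to genotypes with ≥10 input reads and ≥1 read per output. Fitness is the logarithm of genotype enrichment over wild-type enrichment, using inverse-variance-weighted replicate averages. The logarithm is base 2.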
As for A50G A105C, the “polymerase ribozyme fitness (log ratio)” value was -2.43.
Under A41G U54C G61C C104A stands -6.52; under G42C U54G, -1.44.
Under A74C A90C C101G stands -3.22.
With C12U A75G U92A the figure was -2.45; with C11U U59A A91G A118U, -1.98.
For C11U A27U, the “polymerase ribozyme fitness (log ratio)” value was -1.89.
With C72G C85A the figure was -1.82; with C4U U9G U54C C76A, -0.732.
With G52A U87C G117C the figure was -3.1; with A26G G42C C72A, -5.15.
Regarding A6C G71C, the “polymerase ribozyme fitness (log ratio)” value was -1.18.
With G60C C82A A105G U131A the figure was -4.31; with C8A C56A C102A A103U, -3.2; with U9C U130G, -0.0168.
With C15A G127A the figure was -3.63; with A100U U116C, -2.35.
Under G110U G120U stands -2.75.
G17U A18U G35C C72G G77U A103U U112G: the “polymerase ribozyme fitness (log ratio)” value is -6.95.
C12A G110A: the “polymerase ribozyme fitness (log ratio)” value was -1.57.
Take G58C G117A: the “polymerase ribozyme fitness (log ratio)” value was -0.561.
On to C40G C56U G128C, for which the “polymerase ribozyme fitness (log ratio)” value is -3.4.
Under U67C C123G stands -4.34.
Under C40A C114A stands -3.51; under G47A C72U U78A C88A A119U U132C, -1.87; under C28G C82U, -2.1.
With C94A G110C G120C the figure was -6.12; with U21C U55C G63U A105U, -4.84.
On to A83C C104A, for which the “polymerase ribozyme fitness (log ratio)” value was -1.32.
With C40U G117A the figure was -1.87; with U21C C62U A84C, -0.909.
With A50G U116A the figure was -3.15; with C4U G52C G63A G110A, -4.4.
Take A50U C64U C72A C79A C101A: the “polymerase ribozyme fitness (log ratio)” value was -5.1.
With A50U C85U G120C U130A the figure was -0.66; with C8U C70G C97U C124U U131A, -1.27; with U21C C56U A84C C98A, -4.77.
Under G36U A41U stands -2.77.
With G35A A66C G117U the figure was -5.98; with C8G G47C C85G, -1.92; with C15A A43U C49U A91U, -3.45.
On to C13A C73G G120A C123A, for which the “polymerase ribozyme fitness (log ratio)” value is -1.91.
In the case of G44A C102U, the “polymerase ribozyme fitness (log ratio)” value is -4.04.
With C13G C15U the figure was -2.51.
On to C8A U130G U132A, for which the “polymerase ribozyme fitness (log ratio)” value was -2.74.
Take A46C G61U U106A: the “polymerase ribozyme fitness (log ratio)” value is 0.556.
On to A27G C86U, for which the “polymerase ribozyme fitness (log ratio)” value is -2.44.
With C53U G120A U130A the figure was 0.491.
With C12U A46U G51U G60A the figure was -3.42.
Under C82A U112G stands 0.0724; under C20U G52A G60A, -2.6.
Regarding C4G U9G C13A C82U A111G, the “polymerase ribozyme fitness (log ratio)” value is -2.04.
With C12G A27C the figure was -2.38; with A5C U112A C114A, -1.8.
With G60C U130C the figure was -1.11; with C64U G110U, -0.774; with C8A C15G C64U C82G C89A U109A, -6.66.
Turning to A95G, the “polymerase ribozyme fitness (log ratio)” value worked out at 0.119.
Under C70G A121G U131A stands -0.0344; under G51A C64U A105G C115G, -8.49.
Under C62A A90C U112A stands -2.63; under C40A C72A, -0.912.
Under A75G C85U U130C stands -0.982; under C70A A83G C85U G113U G117U, -6.04; under U55A G71A C82A C115A, -0.992.
Take U55A G63A C85G C88G: the “polymerase ribozyme fitness (log ratio)” value is -2.1.
With A18C C40G the figure was -4.09; with A43G C73G A75C U112A, -3.33.
With C11A C20U G42C C53U, the “polymerase ribozyme fitness (log ratio)” value is -4.13.
With A18C G128C the figure was -5.12.
Under G69C G113A stands -1.72; under C8G G69U G107U G113A, -1.04.
Under A37C G63A stands -0.905.
In the case of C40U C62U A95G, the “polymerase ribozyme fitness (log ratio)” value is -0.773.
Under G44U U112A stands 0.425; under G61C C70U C114U G127U, -4.4.
G48C C49G: the “polymerase ribozyme fitness (log ratio)” value is -0.655.
With A5G C79A C115G U125G U131A the figure was -1.22; with A5G U9C C40U C56U U59A, -0.739.
Turning to C76U C82A G120A, the “polymerase ribozyme fitness (log ratio)” value is 0.131.
Under C20A C22A C62G U81G U96G A121U stands -5.74.
Under A111C G122C stands -1.39; under A74G C89G, -1.41.
With C13U U81A the figure was -0.11.
For A2G C97U G113U C114G, the “polymerase ribozyme fitness (log ratio)” value is -3.04.
With C49A C94A A103C the figure was -5.92; with U38G C89U, -0.78; with C15G G17C, -4.24.
With A43C G77U C85G the figure was -4.12; with U9C G39U G48A C53G A91G, -2.06.
Under G52U C73U U129C stands -1.39; under C3U C20U, -1.7; under C34A G77U C98A, -2.63.
Take G36C A68G C79G C98U C115U C124U: the “polymerase ribozyme fitness (log ratio)” value was -6.44.
Under C56U A111G stands 0.705; under U9A G71U C104U, 0.24.
With U9G C56A A66C C72U the figure was -1.3; with C40G C70U U106A U116A G120C, -2.18.
Under G36C A37G C79A stands -2.53; under U33G G39C G110U, -6.35; under U21G C94U, -1.8.
Take A2C C3A U9A C20U G120U: the “polymerase ribozyme fitness (log ratio)” value was -0.418.
Under C97U C114G stands -3.36; under G36U C64U C115G G117U U132A, -6.32; under G69C U78A, -2.44.
Under C12A A26G A121C stands -1.17.
Under G113A C123G C124A stands -3.66; under A5U C11G C94U C104A G110C, -5.6.
For the variant G63A A83G U106A, the “polymerase ribozyme fitness (log ratio)” value was -3.25.
Under G17A G36U C56U stands -4.9.
With U78G C123U the figure was 0.876; with G42C G71C C79U C80U C97A A121U, -6.28; with U129G U132A, -3.7.
Under U9G U38G A105U stands -2.64; under U67C C88A, -5.76; under A37U C98A, -5.84.
As for G60C U81C U116A, the “polymerase ribozyme fitness (log ratio)” value was -2.88.
With G48A U112C U133G the figure was 0.699; with C22G A41U G44U, -5.29.
Under C3A C28U G57A G69U C82U stands -3.79.
For C34G U67C A103G G107C U116C C123G, the “polymerase ribozyme fitness (log ratio)” value was -7.28.
With A29G G35C G45A A100G U112C U116C the figure was -7.03; with C56A C86A, -0.76.
For A5C A118G, the “polymerase ribozyme fitness (log ratio)” value was -0.499.
With C11U C70A the figure was -0.922; with A2C C3G A90U C115U, -3.68; with A2G G52C G60U, 0.0795.
With A43U G77A G120A U134G the figure was -0.215; with C62A C115U, -2.53; with U33A A46C G61A, -5.04.
Under G45U C114U A121U stands -1.71; under G47U G48U G63U A111G, -4.04; under G60C C85U U96A U106C A119U, -4.09.
Regarding C40U, the “polymerase ribozyme fitness (log ratio)” value is -0.543.
Take C40U C64U C82G: the “polymerase ribozyme fitness (log ratio)” value is -1.35.
Under G42C G44U G117U A118U stands -5.32; under C82A C102A, -2.33.
With A16U G113U the figure was -4.23.
With G39U U59A C98U A121G the figure was 0.547; with A2U C11U G57U A91U, -4.18; with C114U G127A, -3.37.
On to C3U U55C G120C, for which the “polymerase ribozyme fitness (log ratio)” value was -1.02.
With G36U C76A C98G U109C C114G the figure was -6.07; with A37U C56G C114A, -1.64.
In the case of C40U C88A C114G, the “polymerase ribozyme fitness (log ratio)” value is -2.99.
In the case of C12A G60C U106G, the “polymerase ribozyme fitness (log ratio)” value was -2.28.
With U9C G60U C62U U78G C80A U112C the figure was -1.95; with G48A C70A C86G G107C G110U, -5.84.
Under U33A G45A G63C stands -5.54.
With C13G G17C U112G U116G the figure was -4.51; with A26C C34A C56A C94G A111U, -7.
Consider G42C C49U, for which the “polymerase ribozyme fitness (log ratio)” value was -2.21.
With U14C G36U A41U the figure was -5.76; with C94A A105U, -3.27; with C3G G63C A68C A111U U112G G113A, -5.32.
With C82U C114U the figure was -2.08.
Turning to C12U U30G G63U G113C G117C, the “polymerase ribozyme fitness (log ratio)” value is -7.89.
As to G77U A105G, the “polymerase ribozyme fitness (log ratio)” value was -2.9.
With A41U C79U the figure was -0.893.
On to C40U G60U U131G, for which the “polymerase ribozyme fitness (log ratio)” value is -0.956.
A26G G71A: the “polymerase ribozyme fitness (log ratio)” value was -2.97.
Under G47U G52A stands -2.71; under C8A C97A G120C, -3.2.
In the case of C22A G57C C102A, the “polymerase ribozyme fitness (log ratio)” value is -5.72.
Under C13A A41G G63A U132C stands -4.55.
For A43C U87G G113C, the “polymerase ribozyme fitness (log ratio)” value was -2.52.
In the case of C8G A16C C62U C94A U112G U130C, the “polymerase ribozyme fitness (log ratio)” value was -1.66.
